Data on six molecules can be found in patent US20220153832A1 (PIONYR IMMUNOTHERAPEUTICS, published 2022).

Residue numbers refer to the chain shown, from its start.

Test [1] concerns the target T1, N-terminally polyhistidine tagged human MARCO ECD (147-520), recombinant (human, UniProt Q9UEW3 147-520).
T1 construct: also called PI-RG-3000; recombinant human MARCO; not shown: N-terminal polyhistidine tag
T1 sequence: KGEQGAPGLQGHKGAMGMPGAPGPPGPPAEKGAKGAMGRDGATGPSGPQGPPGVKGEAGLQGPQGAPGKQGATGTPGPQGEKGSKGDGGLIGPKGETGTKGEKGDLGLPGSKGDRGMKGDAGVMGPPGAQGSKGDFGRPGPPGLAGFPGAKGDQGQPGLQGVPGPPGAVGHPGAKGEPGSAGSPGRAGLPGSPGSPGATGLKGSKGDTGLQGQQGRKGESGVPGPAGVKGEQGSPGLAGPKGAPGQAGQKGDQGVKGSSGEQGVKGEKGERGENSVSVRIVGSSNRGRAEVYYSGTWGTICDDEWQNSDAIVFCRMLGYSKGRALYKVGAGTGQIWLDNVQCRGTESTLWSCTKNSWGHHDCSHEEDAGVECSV
Put plainly: ELISA on recombinant human MARCO, 10 mM EDTA. Here is the method: After the plates were incubated at room temperature for 1 hour or 4° C. overnight, the plates were wash 3 times with ELISA wash buffer (PBS/0.05% TWEEN-20), then hybridoma supernatant (1:5 dilution) or purified antibody (1 ug) was diluted in DPBS/Ca2+/2% FBS, DPBS without Ca2+/2 mM EDTA/2% FBS, DPBS without Ca2+/10 mM EDTA/2% FBS, and DPBS without Ca2+/50 mM EDTA/2% FBS. Plates again were incubated at room temperature for 1 hour.
Background: An ELISA detects its analyte on a solid surface through an enzyme-linked reagent.

The target of test [2] is T2, N-terminal his-tagged mouse MARCO protein, recombinant (mouse, UniProt Q60754 150-518).
T2 construct: The entry holds the His tag, the CLD and the SRCR domain; also called mMARCO (RG3016); PI-RG-3016
T2 sequence: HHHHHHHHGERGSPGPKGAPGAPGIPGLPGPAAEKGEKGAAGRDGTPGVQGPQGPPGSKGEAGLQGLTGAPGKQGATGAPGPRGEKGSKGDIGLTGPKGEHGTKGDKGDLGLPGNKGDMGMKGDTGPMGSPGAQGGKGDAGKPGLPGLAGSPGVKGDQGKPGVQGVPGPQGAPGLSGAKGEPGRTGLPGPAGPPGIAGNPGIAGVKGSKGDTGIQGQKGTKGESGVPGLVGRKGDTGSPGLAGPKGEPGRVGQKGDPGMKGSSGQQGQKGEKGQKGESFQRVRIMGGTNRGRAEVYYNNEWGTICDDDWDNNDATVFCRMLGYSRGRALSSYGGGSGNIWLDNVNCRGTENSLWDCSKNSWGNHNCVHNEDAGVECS
Put plainly: Biacore; antigen construct not stated. For orientation: Surface plasmon resonance follows binding to a sensor surface in real time, without labels.

Test [3] concerns the target T3, Human Macrophage Receptor with Collagenous Structure (MARCO), full length, on cells (human, UniProt Q9UEW3 1-520).
T3 construct: the cell type is named under assay; also called huMARCO; HuMARCO
T3 sequence: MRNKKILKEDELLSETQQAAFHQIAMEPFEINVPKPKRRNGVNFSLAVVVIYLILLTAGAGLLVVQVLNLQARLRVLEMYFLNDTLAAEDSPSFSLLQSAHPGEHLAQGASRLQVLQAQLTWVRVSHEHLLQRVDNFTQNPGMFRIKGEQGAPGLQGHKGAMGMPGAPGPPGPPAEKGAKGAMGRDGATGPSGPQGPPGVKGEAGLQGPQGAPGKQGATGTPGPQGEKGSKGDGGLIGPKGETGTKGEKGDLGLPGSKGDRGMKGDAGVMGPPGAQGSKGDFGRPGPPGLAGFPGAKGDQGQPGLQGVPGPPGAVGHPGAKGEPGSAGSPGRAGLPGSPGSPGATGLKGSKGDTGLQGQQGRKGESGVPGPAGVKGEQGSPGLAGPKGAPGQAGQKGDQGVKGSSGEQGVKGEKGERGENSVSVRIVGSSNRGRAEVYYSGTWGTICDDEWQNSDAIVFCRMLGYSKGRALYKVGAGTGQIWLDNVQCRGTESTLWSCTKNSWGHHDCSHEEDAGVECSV
Put plainly: cell-based competition with AF488 E. coli binding to cells expressing MARCO. Here is the method: Zombie NIR viability dye (BioLegend), prepared by diluting the stock 1000-fold in D-PBS, was added to the cells and incubated for 10 min at RT in the dark. The reaction was quenched by adding 1 m of 4× Staining buffer (2% FBS in DBPS containing Ca2+), followed by centrifugation at 400×g for 5 min at 4° C. Cells were then plated in V-shaped 96 well plates at a density of 100,000 cells. A488-fluorescently labeled bacteria (E. coli from Invitrogen) was added at 10 μg/ml with the anti-human MARCO antibodies of interest for a 30 min incubation at 37 C. Plates were then washed twice followed by resuspension in 100 ul of staining buffer for acquisition on the flow cytometer (Attune NxT, Life Technologies). Flow cytometry data were analyzed using FlowJo software (version 10.6.1) and data were processed and further analyzed in Microsoft Excel and GraphPad Prism software (version 8).

Test [4] concerns the target T4, Cynomolgus MARCO, full length, on cells (cynomolgus, UniProt A0A2K5X0Z2 1-519).
T4 construct: whole, on cells; also called cyno MARCO; CyMARCO
T4 sequence: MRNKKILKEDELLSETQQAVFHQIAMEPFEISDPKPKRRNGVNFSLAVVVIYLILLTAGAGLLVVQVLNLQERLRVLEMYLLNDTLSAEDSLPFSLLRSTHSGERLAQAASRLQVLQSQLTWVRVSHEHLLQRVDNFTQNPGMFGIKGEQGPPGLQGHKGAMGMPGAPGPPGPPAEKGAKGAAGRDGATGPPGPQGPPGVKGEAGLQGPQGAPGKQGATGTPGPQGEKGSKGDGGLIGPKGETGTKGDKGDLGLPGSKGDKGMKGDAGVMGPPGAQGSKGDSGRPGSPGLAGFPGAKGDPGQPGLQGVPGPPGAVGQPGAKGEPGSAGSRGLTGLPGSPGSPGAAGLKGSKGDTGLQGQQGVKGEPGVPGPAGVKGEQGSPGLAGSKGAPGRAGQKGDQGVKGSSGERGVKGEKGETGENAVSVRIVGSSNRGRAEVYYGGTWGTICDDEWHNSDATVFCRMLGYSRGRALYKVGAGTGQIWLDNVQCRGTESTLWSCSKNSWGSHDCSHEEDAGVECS
Put plainly: flow cytometry, cells overexpressing cyno MARCO.

What is called koff is the rate constant with which the complex falls apart. For orientation: kon means the rate constant with which the complex forms. As a reminder, the EC50 is the midpoint of the concentration-response curve. Read a low EC50 as a more potent agent.

B1: PI-HX-3031 (antibody)
heavy: QVQLKESGPGLVQPSQTLSLTCTVSGFSLTSYHVSWVRQPPGKGLEWMGAIWTGGSIAYNSLLKSRLSISRDTSKSQVFLKMNSLQTEDTATYYCARDLSDYYSSYTSFDYWGQGVMVTVSTAETTAPSVYPLAPGTALKSNSMVTLGCLVKGYFPEPVTVTWNSGALSSGVHTFPAVLQSGLYTLTSSVTVPSSTWSSQAVTCNVAHPASSTKVDKKIVPRECNPCGCTGSEVSSVFIFPPKTKDVLTITLTPKVTCVVVDISQNDPEVRFSWFIDDVEVHTAQTHAPEKQSNSTLRSVSELPIVHRDWLNGKTFKCKVNSGAFPAPIEKSISKPEGTPRGPQVYTMAPPKEEMTQSQVSITCMVKGFYPPDIYTEWKMNGQPQENYKNTPPTMDTDGSYFLYSKLNVKKETWQQGNTFTCSVLHEGLHNHHTEKSLSHSP
light: DIQMTQSPASLSTSLGETVSIECLASEGISNDLAWYQQKSGKSPQLLIYAASRLQDGVPSRFSGSGSGTRYSLKISGMQPEDEADYFCQQSYKYPLTFGSGTKLEIKRADAAPTVSIFPPSTEQLATGGASVVCLMNNFYPRDISVKWKIDGTERRDGVLDSVTDQDSKDSTYSMSSTLSLTKADYESHNLYTCEVVHKTSSSPVVKSFNRNEC
notes: Parental rat hybridoma, rat IgG2a
With B1, the “ELISA signal (A450)” value in test [1] was found to be 0.0589.

B2: PI-HX-3043 (antibody, rat IgG2a)
heavy: QVNLLQSRAALVKPGASVKLSCKASGYTFTDYYLHWVKQSHAKSLEWIGYINPNNAYTSYNEKFKSKATLTVDKSTNTAYMELSRLTSADSATYYCARDTTDYYNLHFAYWGQGTLVTVSSAETTAPSVYPLAPGTALKSNSMVTLGCLVKGYFPEPVTVTWNSGALSSGVHTFPAVLQSGLYTLTSSVTVPSSTWSSQAVTCNVAHPASSTKVDKKIVPRECNPCGCTGSEVSSVFIFPPKTKDVLTITLTPKVTCVVVDISQNDPEVRFSWFIDDVEVHTAQTHAPEKQSNSTLRSVSELPIVHRDWLNGKTFKCKVNSGAFPAPIEKSISKPEGTPRGPQVYTMAPPKEEMTQSQVSITCMVKGFYPPDIYTEWKMNGQPQENYKNTPPTMDTDGSYFLYSKLNVKKETWQQGNTFTCSVLHEGLHNHHTEKSLSHSP
light: B1 light with T13A, A25T, A50D, Q55E, P80T
notes: as for B1
With B2, the “ELISA signal (A450)” value in test [1] is 0.06.

B3: PI-HX-3021 (antibody, V domains shown)
VH: QVRLVQSGTALVRPGASVRMSCTASGYSFTDYWVSWVKQSHGQSLEWIGEIYPNSGTTNFNEKFEGKATLTVDKSTSTAYMELSRLTSEDSAIYYCTGEGTFDYWGQGVMVTVSS
VL: EIVLTQSPTTMAASPGEKVTITCRPSSSLSNMHWFQQKSGTSPKPWIYDTSKLASGVPDRFSGSGSGTSYSLTISSMEAEDAATYYCLQRSSYPPTFGAGTKLELK
notes: Rat IgG2a hybridoma antibody; Not the effector dead PI-3021; also called PI-3007 (name of the recombinant form)
For the molecule B3, in test [2], the koff turned out to be 2.11e-05 s⁻¹ and the kon was 191000 M⁻¹ s⁻¹.

B4: PI-HX-3016 (antibody, rat IgG1, V domains shown)
VH: EVQLVESGGGLVKPGASLKLSCVASGFTFSDDWMNWVRQTPGKAMEWIGDIKYDGSYTNYVPSLKNRLTISRDNAKNTLYLQMTNVRSEDTATYYCTSGGVFDYWGQGVMVTVSS
VL: B3 VL with T5S, P25A, L29V, N31Y, S92G, L105V
notes: Rat IgG1 hybridoma antibody
Turning to B4, in test [2], the koff came out at 1.27e-06 s⁻¹ and the kon was found to be 184000 M⁻¹ s⁻¹.

B5: PI-3015-AB (antibody, human IgG1, kappa)
heavy: not shown
light: DIQMTQSPSSLSASVGDRVTITCRASEGISNDLAWYQQKPGKAPKLLIYAASRLQSGVPSRFSGSGSGTDYTLTISSMQPEDFATYYCQQSYKYPLTFGQGTKLEIKRTVAAPSVFIFPPSDEQLKSGTASVVCLLNNFYPREAKVQWKVDNALQSGNSQESVTEQDSKDSTYSLSSTLTLSKADYEKHKVYACEVTHQGLSSPVTKSFNRGEC
As to B5, the EC50 in test [3] turned out to be 0.5 nM; in test [4], 1.73 nM.

B6: PI-3010-AB (antibody, human IgG1, kappa)
heavy: not shown
light: DIQMTQSPASLSTSLGETVSIECLASEGISNDLAWYQQKSGKSPQLLIYAASRLQDGVPSRFSGSGSGTRYSLKISGMQPEDEADYFCQQSYKYPLTFGSGTKLEIKRTVAAPSVFIFPPSDEQLKSGTASVVCLLNNFYPREAKVQWKVDNALQSGNSQESVTEQDSKDSTYSLSSTLTLSKADYEKHKVYACEVTHQGLSSPVTKSFNRGEC
Regarding B6, the values for the EC50 in test [3] and in test [4] were 0.44 nM and 1.48 nM, respectively.
